How the values were obtained:
[1] = molecular target: T1, leucyl-tRNA synthetase (LRS), endogenous in MEF cell lysate (UniProt Q8BMJ2 1-1178); assay: co-immunoprecipitation from MEF cell lysate, Western blot
T1 construct: Endogenous protein immunoprecipitated from MEF cells
Description: Particularly, MEF cells stimulated by amino acids by the same manner as described in Example <1-1> were washed with cold PBS. At this time, MEF cells unstimulated with amino acids were used as the control. The cells were lysed in mild lysis buffer (MLB: 10 mM Tris (pH 7.5), 2 mM EDTA, 100 mM NaCl, […], 50 mM NaF, 1 mM Na₃VO₄ and protease inhibitor cocktail (Sigma)). On the other hand, for immunoprecipitation of LRS, the cells were lysed in MIPT buffer. Then, the lysate was microcentrifuged at 13,000×g for 10 minutes to collect supernatant. An antibody was added to the supernatant at 4° C., followed by immunoprecipitation. Reaction was induced in the presence of protein G-agarose or M2-beads (Sigma). The beads were washed with lysis buffer 3 to 5 times, followed by Western blotting according to the conventional method. Immunoprecipitation for Vps34 was performed with protein G-agarose beads, and immunoprecipitation for Flag-LRS was performed with M2-beads.

[2] = molecular target: T1, leucyl-tRNA synthetase (LRS), …; assay: immunoprecipitation with Atg14L antibody from MEF cell lysate, Western blot

T1 sequence (Q8BMJ2 whole entry): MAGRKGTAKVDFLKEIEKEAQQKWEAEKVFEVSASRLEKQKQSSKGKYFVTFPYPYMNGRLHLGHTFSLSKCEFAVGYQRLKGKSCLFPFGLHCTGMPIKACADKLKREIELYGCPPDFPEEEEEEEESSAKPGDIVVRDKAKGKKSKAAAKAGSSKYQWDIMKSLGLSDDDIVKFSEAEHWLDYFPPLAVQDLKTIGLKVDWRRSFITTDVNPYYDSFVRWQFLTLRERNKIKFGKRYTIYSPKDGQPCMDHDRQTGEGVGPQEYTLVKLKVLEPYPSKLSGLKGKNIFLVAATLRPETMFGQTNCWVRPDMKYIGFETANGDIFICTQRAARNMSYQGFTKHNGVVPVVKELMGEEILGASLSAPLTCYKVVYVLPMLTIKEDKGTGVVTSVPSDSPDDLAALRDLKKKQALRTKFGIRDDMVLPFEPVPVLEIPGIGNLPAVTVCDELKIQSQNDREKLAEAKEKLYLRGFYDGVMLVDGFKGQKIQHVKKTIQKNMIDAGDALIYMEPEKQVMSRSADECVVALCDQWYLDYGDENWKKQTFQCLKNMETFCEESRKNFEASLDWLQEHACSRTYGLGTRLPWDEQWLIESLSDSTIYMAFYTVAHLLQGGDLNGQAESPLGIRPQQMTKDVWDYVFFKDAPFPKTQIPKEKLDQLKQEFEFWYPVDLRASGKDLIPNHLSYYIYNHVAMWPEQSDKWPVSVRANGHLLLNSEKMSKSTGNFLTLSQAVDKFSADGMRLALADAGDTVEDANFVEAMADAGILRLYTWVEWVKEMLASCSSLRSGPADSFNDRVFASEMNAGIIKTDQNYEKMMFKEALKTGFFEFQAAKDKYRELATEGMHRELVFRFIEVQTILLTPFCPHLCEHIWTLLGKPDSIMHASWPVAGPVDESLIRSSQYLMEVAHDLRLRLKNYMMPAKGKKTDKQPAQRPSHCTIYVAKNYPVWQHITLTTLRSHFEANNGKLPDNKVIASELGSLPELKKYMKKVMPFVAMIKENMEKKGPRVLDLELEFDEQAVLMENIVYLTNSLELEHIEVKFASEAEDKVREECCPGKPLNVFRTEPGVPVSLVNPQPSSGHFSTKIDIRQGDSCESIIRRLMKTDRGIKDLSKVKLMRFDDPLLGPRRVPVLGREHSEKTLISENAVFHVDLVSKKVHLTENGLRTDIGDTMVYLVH

B1: Vps34 (vacuolar protein sorting 34), endogenous in MEF cell lysate (enzyme, UniProt Q6PF93 1-887, looked up)
chain: MGEAEKFHYIYSCDLDINVQLKIGSLEGKREQKSYKAVLEDPMLKFSGLYQETCSDLYVTCQVFAEGKPLALPVRTSYKAFSTRWNWNEWLKLPVKYPDLPRNAQVALTIWDVYGPGSAVPVGGTTVSLFGKYGMFRQGMHDLKVWPNVEADGSEPTRTPGRTSSTLSEDQMSRLAKLTKAHRQGHMVKVDWLDRLTFREIEMINESEKRSSNFMYLMVEFRCVKCDDKEYGIVYYEKDGDESSPILTSFELVKVPDPQMSMENLVESKHHKLARSLRSGPSDHDLKPNATTRDQLNIIVSYPPTKQLTYEEQDLVWKFRYYLTNQEKALTKFLKCVNWDLPQEAKQALELLGKWKPMDVEDSLELLSSHYTNPTVRRYAVARLRQADDEDLLMYLLQLVQALKYENFDDIKNGLEPTKKDSQTSASESLSNSGVSSGDIDSSQIITNPLPPVASPPPASKAKEVSDGENLEQDLCTFLISRACKNSTLANYLYWYVIVECEDQDTQQRDPKTHEMYLNVMRRFSQALLKGDKSVRVMRSLLAAQQTFVDRLVHLMKAVQRESGNRKKKNERLQALLGDNEKMNLSDVELIPLPLEPQVKIRGIIPETATLFKSALMPAQLFFKTEDGGKYPVIFKHGDDLRQDQLILQIISLMDKLLRKENLDLKLTPYKVLATSTKHGFMQFIQSVPVAEVLDTEGSIQNFFRKYAPSETGPYGISAEVMDTYVKSCAGYCVITYILGVGDRHLDNLLLTKTGKLFHIDFGYILGRDPKPLPPPMKLNKEMVEGMGGTQSEQYQEFRKQCYTAFLHLRRYSNLILNLFSLMVDANIPDIALEPDKTVKKVQDKFRLDLSDEEAVHYMQSLIDESVHALFAAVVEQIHKFAQYWRK
notes: Endogenous protein from MEF cells; also called Vps34 immune complex
- binding result [1]: binds

B2: Atg14L, endogenous in MEF cell lysate (other, UniProt Q8CDJ3 1-492, looked up)
chain: MASPSGKGSWTPEAPGFGPRALARDLVDSVDDAEGLYVAVERCPLCNTTRRRLTCAKCVQSGDFVYFDGRDRERFIDKKERLSQLKNKQEEFQKEVLKAMEGKRLTDQLRWKIMSCKMRIEQLKQTICKGNEEMKKNSEGLLKNKEKNQKLYSRAQRHQEKKEKIQRHNRKLGDLVEKKTIDLKSHYERLARLRRSHILELTSIIFPIDEVKTSGRDPADVSSETDSAMTSSMVSKLAEARRTTYLSGRWVCDDHNGDTSISITGPWISLPNNGDYSAYYNWVEEKKTTQGPDMEHNNPAYTISAALGYATQLVNIVSHILDINLPKKLCNSEFCGENLSKQKLTRAVRKLNANILYLCSSQHVNLDQLQPLHTLRNLMHLVSPRSEHLGRSGPFEVRADLEESMEFVDPGVAGESDASGDERVSDEETDLGTDWENLPSPRFCDIPSQPVEVSQSQSTQVSPPIASSSAGGMISSAAASVTSWFKAYTGHR
notes: Endogenous protein; also called autophagic Vps34 complex
- binding result [2]: no binding

— patent US20200155655A1 (GACHON UNIVERSITY OF INDUSTRY ACADEMIC COOPERATION …, published 2020)
